Values quoted from earlier work in patent US20220257789A1, “ANTI-TISSUE FACTOR ANTIBODY-DRUG CONJUGATES AND RELATED METHODS” (Iconic Therapeutics, Inc., priority 2019, published 2022).
Where two headings read alike, the source gives them in different places.

Columns and labels:
mTF = target: T1, mTF (Mus musculus, UniProt P20352); conditions: binds when a KD value can be measured on a ForteBio Octet
T1 sequence (P20352 29-294): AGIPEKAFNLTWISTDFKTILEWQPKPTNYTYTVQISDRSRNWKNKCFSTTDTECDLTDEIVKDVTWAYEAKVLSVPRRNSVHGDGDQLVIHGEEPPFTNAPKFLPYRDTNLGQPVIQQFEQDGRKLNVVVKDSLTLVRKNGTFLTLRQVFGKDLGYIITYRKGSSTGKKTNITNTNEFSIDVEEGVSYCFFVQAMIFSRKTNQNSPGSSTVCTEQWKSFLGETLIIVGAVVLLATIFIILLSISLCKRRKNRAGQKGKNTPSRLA

Substance | dose limiting toxicities (6 mg/kg) | toxicity (dose of 2.2 mg/kg (de Bono et al. 2019)) | toxicity (dose of 3 mg/kg) | ALT and AST (in vivo) | binding to mouse TF (mTF)
tisotumab vedotin: anti-TF fully human monoclonal antibody conjugated to MMAE with a protease-cleavable linker (Genmab) | grade 4 neutropenia and severe skin irritation and skin ulceration | dose limiting toxicity (e.g., neutropenia) | Neutropenia and skin toxicity | transient ALT and AST elevations | –
humanized 5G9: humanized 5G9 anti-TF antibody described in Ngo et al., 2007; VH SEQ ID NO: 830, VL SEQ ID NO: 831 | – | – | – | – | do not bind to mouse TF
